For one substance, stoichiometry N results are on record in article doi:10.1101/721233.

The target of the assay is human TrkA transmembrane domain peptide (TrkA-TM-wt) (human). The assay can be described thus: NMR structure.

By stoichiometry N is commonly meant a count of units in the complex or per binding partner.

As for “human TrkA transmembrane domain peptide (TrkA-TM-wt) (domain or fragment)”, the stoichiometry N was 2.
